Reference: PMC9407403 (Proceedings of the National Academy of Sciences of the …, 2022)

Target: T1, SARS-CoV-2 WT spike (S) protein (SARS-CoV-2 prototype Wuhan-Hu-1 …, UniProt P0DTC2)
T1 construct: source: bought: Sino Biological Inc., purified
Assay: cryo-EM structure
Conditions: both partners purified

B1: Fab fragment of nAb X10 (Fab, V domains shown)
VH: EVQLQQSGPELVKPGASVKISCKTSGYTFTEYTLHWVKQSHGKSLEWIGGFDPNFGGATYNLKFEDKATLTVDKSSNTAYMELRSLTSEDSAVFYCARGDYGTSYAYFDFWGQGTTLTVSS
VL: DIVLTQSPASLAVSLGQRAAISCRASQSVSTSSHNYVHWYQQRPGQPPKLLIKYASNLECGVPARFSGSGSGTDFTLNIHPVEEEDSAAYYCQHSWEIPYTFGGGTKLEIK
binding result: binds

B2: Fab fragment of nAb X01 (Fab, V domains shown)
VH: EIQLQQSGPELVAPGASVKVSCKASGYAFTSYNMYWVRQSHGKSLEWIGYIVPYNGGTTYNQEFKGKATLTVDKSSNTAYIHLNSLTSEDSAVYYCAKEGTYYGYDGVLADWGQGTLVT
VL: DIQMTQSSSYLSVSLGGRVTITCKASDHINNWLAWYQQKPGNAPRLLISGVTNLETGVPSRFSGSGSGKNFTLSIASLQTEDVATYYCQQYWSFPWTFGGGTKLEIR
binding result: binds
